Test results as given in the supplement of paper PMC5998384.

How the values were obtained:
HeLa Kyoto [1] = assay: solubility change mitosis vs G1/S (difference of NP-40 vs SDS log2 ratios) (log2 ratio difference); higher = more soluble in mitosis
HeLa Kyoto [2] = assay: melting temperature (median over replicates), in situ; higher = more thermally stable
HeLa Kyoto [3] = assay: thermal stability score vs G1/S (z-score of summed log2 fold changes over temperatures); higher = more thermally stable than in G1/S
HeLa Kyoto [4] = assay: solubility in G1/S (NP-40 vs SDS abundance) (log2 ratio); higher = more soluble; conditions: cell cycle stage: G1/S
[5] = cell cycle stage: early G1 (4.5 h after nocodazole release)
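For melting temperature (median over replicates), in situ in this document: HeLa Kyoto cells synchronized by double thymidine or nocodazole block, proteins quantified by TMT10plex mass spectrometry, three independent biological replicates.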
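For solubility change mitosis vs G1/S (difference of NP-40 vs SDS log2 ratios) in this document: synchronized HeLa Kyoto cells (double thymidine block for G1/S, nocodazole release for mitosis), protein amounts in NP-40 versus SDS lysates quantified by mass spectrometry, three biological replicates.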
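For solubility in G1/S (NP-40 vs SDS abundance) in this document: HeLa Kyoto cells arrested at G1/S by double thymidine block, proteins quantified by TMT10plex mass spectrometry in mild NP-40 versus SDS extracts, three biological replicates.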
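For thermal stability score vs G1/S (z-score of summed log2 fold changes over temperatures) in this document: synchronized HeLa Kyoto cells, proteins quantified by TMT10plex mass spectrometry, three biological replicates, mitosis taken 0.5 h after nocodazole release, G1/S directly after double thymidine block.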

## MPGRAPLRTVPGALGAWLLGGLWAWTLCGLCSLGAVGAPRPCQAPQQWEGRQVMYQQSSGRNSRALLSYDGLNQRVRVLDERKALIPCKRLFEYILLYKDGVMFQIDQATKQCSKMTLTQPWDPLDIPQNSTFEDQYSIGGPQEQITVQEWSDRKSARSYETWIGIYTVKDCYPVQETFTINYSVILSTRFFDIQLGIKDPSVFTPPSTCQMAQLEKMSEDCSW [EPDR1]
HeLa Kyoto [1]
  solubility change mitosis (log2): -0.162
HeLa Kyoto [2]; cell cycle stage: G1/S
  melting temperature: 56.1 °C
HeLa Kyoto [2]; cell cycle stage: mitosis
  melting temperature: 55 °C
HeLa Kyoto [3]; [5]
  thermal stability score: -1.3
HeLa Kyoto [3]; cell cycle stage: mitosis
  thermal stability score: -2.65
HeLa Kyoto [4]
  solubility in G1/S (log2): 0.348

## MEATTAGVGRLEEEALRRKERLKALREKTGRKDKEDGEPKTKHLREEEEEGEKHRELRLRNYVPEDEDLKKRRVPQAKPVAVEEKVKEQLEAAKPEPVIEEVDLANLAPRKPDWDLKRDVAKKLEKLKKRTQRAIAELIRERLKGQEDSLASAVDAATEQKTCDSD [CCDC12]
HeLa Kyoto [1]
  solubility change mitosis (log2): 0.156
HeLa Kyoto [2]; cell cycle stage: G1/S
  melting temperature: 53.7 °C
HeLa Kyoto [2]; cell cycle stage: mitosis
  melting temperature: 53.3 °C
HeLa Kyoto [3]; [5]
  thermal stability score: -1.88
HeLa Kyoto [3]; cell cycle stage: mitosis
  thermal stability score: -2.79
HeLa Kyoto [4]
  solubility in G1/S (log2): 0.73

## MFRAAAPGQLRRAASLLRFQSTLVIAEHANDSLAPITLNTITAATRLGGEVSCLVAGTKCDKVAQDLCKVAGIAKVLVAQHDVYKGLLPEELTPLILATQKQFNYTHICAGASAFGKNLLPRVAAKLEVAPISDIIAIKSPDTFVRTIYAGNALCTVKCDEKVKVFSVRGTSFDAAATSGGSASSEKASSTSPVEISEWLDQKLTKSDRPELTGAKVVVSGGRGLKSGENFKLLYDLADQLHAAVGASRAAVDAGFVPNDMQVGQTGKIVAPELYIAVGISGAIQHLAGMKDSKTIVAINKDPEAPIFQVADYGIVADLFKVVPEMTEILKKK [ETFA]
HeLa Kyoto [1]
  solubility change mitosis (log2): -0.02
HeLa Kyoto [2]; cell cycle stage: G1/S
  melting temperature: 54.1 °C
HeLa Kyoto [2]; cell cycle stage: mitosis
  melting temperature: 53.6 °C
HeLa Kyoto [3]; [5]
  thermal stability score: -3.45
HeLa Kyoto [3]; cell cycle stage: mitosis
  thermal stability score: -1.76
HeLa Kyoto [4]
  solubility in G1/S (log2): 0.455

## MAAQRIRAANSNGLPRCKSEGTLIDLSEGFSETSFNDIKVPSPSALLVDNPTPFGNAKEVIAIKDYCPTNFTTLKFSKGDHLYVLDTSGGEWWYAHNTTEMGYIPSSYVQPLNYRNSTLSDSGMIDNLPDSPDEVAKELELLGGWTDDKKVPGRMYSNNPFWNGVQTNPFLNGNVPVMPSLDELNPKSTVDLLLFDAGTSSFTESSSATTNSTGNIFDELPVTNGLHAEPPVRRDNPFFRSKRSYSLSELSVLQAKSDAPTSSSFFTGLKSPAPEQFQSREDFRTAWLNHRKLARSCHDLDLLGQSPGWGQTQAVETNIVCKLDSSGGAVQLPDTSISIHVPEGHVAPGETQQISMKALLDPPLELNSDRSCSISPVLEVKLSNLEVKTSIILEMKVSAEIKNDLFSKSTVGLQCLRSDSKEGPYVSVPLNCSCGDTVQAQLHNLEPCMYVAVVAHGPSILYPSTVWDFINKKVTVGLYGPKHIHPSFKTVVTIFGHDCAPKTLLVSEVTRQAPNPAPVALQLWGKHQFVLSRPQDLKVCMFSNMTNYEVKASEQAKVVRGFQLKLGKVSRLIFPITSQNPNELSDFTLRVQVKDDQEAILTQFCVQTPQPPPKSAIKPSGQRRFLKKNEVGKIILSPFATTTKYPTFQDRPVSSLKFGKLLKTVVRQNKNHYLLEYKKGDGIALLSEERVRLRGQLWTKEWYIGYYQGRVGLVHTKNVLVVGRARPSLCSGPELSTSVLLEQILRPCKFLTYIYASVRTLLMENISSWRSFADALGYVNLPLTFFCRAELDSEPERVASVLEKLKEDCNNTENKERKSFQKELVMALLKMDCQGLVVRLIQDFVLLTTAVEVAQRWRELAEKLAKVSKQQMDAYESPHRDRNGVVDSEAMWKPAYDFLLTWSHQIGDSYRDVIQELHLGLDKMKNPITKRWKHLTGTLILVNSLDVLRAAAFSPADQDDFVI [SH3BP4]
HeLa Kyoto [1]
  solubility change mitosis (log2): -0.133
HeLa Kyoto [2]; cell cycle stage: G1/S
  melting temperature: 50.4 °C
HeLa Kyoto [2]; cell cycle stage: mitosis
  melting temperature: 49.2 °C
HeLa Kyoto [3]; [5]
  thermal stability score: 0.727
HeLa Kyoto [3]; cell cycle stage: mitosis
  thermal stability score: 0.411
HeLa Kyoto [4]
  solubility in G1/S (log2): -0.0978

## MGKEQELLEAARTGHLPAVEKLLSGKRLSSGFGGGGGGGSGGGGGGSGGGGGGLGSSSHPLSSLLSMWRGPNVNCVDSTGYTPLHHAALNGHKDVVEVLLRNDALTNVADSKGCYPLHLAAWKGDAQIVRLLIHQGPSHTRVNEQNNDNETALHCAAQYGHTEVVKVLLEELTDPTMRNNKFETPLDLAALYGRLEVVKMLLNAHPNLLSCNTKKHTPLHLAARNGHKAVVQVLLDAGMDSNYQTEMGSALHEAALFGKTDVVQILLAAGTDVNIKDNHGLTALDTVRELPSQKSQQIAALIEDHMTGKRSTKEVDKTPPPQPPLISSMDSISQKSQGDVEKAVTELIIDFDANAEEEGPYEALYNAISCHSLDSMASGRSSDQDSTNKEAEAAGVKPAGVRPRERPPPPAKPPPDEEEEDHIDKKYFPLTASEVLSMRPRIHGSAAREEDEHPYELLLTAETKKVVLVDGKTKDHRRSSSSRSQDSAEGQDGQVPEQFSGLLHGSSPVCEVGQDPFQLLCTAGQSHPDGSPQQGACHKASMQLEETGVHAPGASQPSALDQSKRVGYLTGLPTTNSRSHPETLTHTASPHPGGAEEGDRSGARSRAPPTSKPKAELKLSRSLSKSDSDLLTCSPTEDATMGSRSESLSNCSIGKKRLEKSPSFASEWDEIEKIMSSIGEGIDFSQERQKISGLRTLEQSVGEWLESIGLQQYESKLLLNGFDDVHFLGSNVMEEQDLRDIGISDPQHRRKLLQAARSLPKVKALGYDGNSPPSVPSWLDSLGLQDYVHSFLSSGYSSIDTVKNLWELELVNVLKVQLLGHRKRIIASLADRPYEEPPQKPPRFSQLRCQDLLSQTSSPLSQNDSCTGRSADLLLPPGDTGRRRHDSLHDPAAPSRAERFRIQEEHREAKLTLRPPSLAAPYAPVQSWQHQPEKLIFESCGYEANYLGSMLIKDLRGTESTQDACAKMRKSTEHMKKIPTIILSITYKGVKFIDASNKNVIAEHEIRNISCAAQDPEDLCTFAYITKDLQTSHHYCHVFSTVDVNLTYEIILTLGQAFEVAYQLALQAQKSRATGASAAEMIETKSSKPVPKPRVGVRKSALEPPDMDQDAQSHASVSWVVDPKPDSKRSLSTN [ANKS1A]
HeLa Kyoto [1]
  solubility change mitosis (log2): -0.0097
HeLa Kyoto [2]; cell cycle stage: G1/S
  melting temperature: 49.9 °C
HeLa Kyoto [2]; cell cycle stage: mitosis
  melting temperature: 50.1 °C
HeLa Kyoto [3]; [5]
  thermal stability score: 0.94
HeLa Kyoto [3]; cell cycle stage: mitosis
  thermal stability score: 1.51
HeLa Kyoto [4]
  solubility in G1/S (log2): 0.191

## MVSRVQLPPEIQLAQRLAGNEQVTRDRAVRKLRKYIVARTQRAAGGFTHDELLKVWKGLFYCMWMQDKPLLQEELGRTISQLVHAFQTTEAQHLFLQAFWQTMNREWTGIDRLRLDKFYMLMRMVLNESLKVLKMQGWEERQIEELLELLMTEILHPSSQAPNGVKSHFIEIFLEELTKVGAEELTADQNLKFIDPFCRIAARTKDSLVLNNITRGIFETIVEQAPLAIEDLLNELDTQDEEVASDSDESSEGGERGDALSQKRSEKPPAGSICRAEPEAGEEQAGDDRDSGGPVLQFDYEAVANRLFEMASRQSTPSQNRKRLYKVIRKLQDLAGGIFPEDEIPEKACRRLLEGRRQKKTKKQKRLLRLQQERGKGEKEPPSPGMERKRSRRRGVGADPEARAEAGEQPGTAERALLRDQPRGRGQRGARQRRRTPRPLTSARAKAANVQEPEKKKKRRE [RRP1]
HeLa Kyoto [1]
  solubility change mitosis (log2): 0.797
HeLa Kyoto [2]; cell cycle stage: G1/S
  melting temperature: 46.6 °C
HeLa Kyoto [2]; cell cycle stage: mitosis
  melting temperature: 48.8 °C
HeLa Kyoto [3]; [5]
  thermal stability score: 2.67
HeLa Kyoto [3]; cell cycle stage: mitosis
  thermal stability score: 7.98
HeLa Kyoto [4]
  solubility in G1/S (log2): -1.24

## MLYFSLFWAARPLQRCGQLVRMAIRAQHSNAAQTQTGEANRGWTGQESLSDSDPEMWELLQREKDRQCRGLELIASENFCSRAALEALGSCLNNKYSEGYPGKRYYGGAEVVDEIELLCQRRALEAFDLDPAQWGVNVQPYSGSPANLAVYTALLQPHDRIMGLDLPDGGHLTHGYMSDVKRISATSIFFESMPYKLNPKTGLIDYNQLALTARLFRPRLIIAGTSAYARLIDYARMREVCDEVKAHLLADMAHISGLVAAKVIPSPFKHADIVTTTTHKTLRGARSGLIFYRKGVKAVDPKTGREIPYTFEDRINFAVFPSLQGGPHNHAIAAVAVALKQACTPMFREYSLQVLKNARAMADALLERGYSLVSGGTDNHLVLVDLRPKGLDGARAERVLELVSITANKNTCPGDRSAITPGGLRLGAPALTSRQFREDDFRRVVDFIDEGVNIGLEVKSKTAKLQDFKSFLLKDSETSQRLANLRQRVEQFARAFPMPGFDEH [SHMT2]
HeLa Kyoto [1]
  solubility change mitosis (log2): -0.0179
HeLa Kyoto [2]; cell cycle stage: G1/S
  melting temperature: 56.7 °C
HeLa Kyoto [2]; cell cycle stage: mitosis
  melting temperature: 56.8 °C
HeLa Kyoto [3]; [5]
  thermal stability score: 0.0206
HeLa Kyoto [3]; cell cycle stage: mitosis
  thermal stability score: 0.314
HeLa Kyoto [4]
  solubility in G1/S (log2): 0.416
